Holding throughout (experiment): cell_activity; split GFP integration
Holding throughout (details): tags: 3xFlag, SV40 NLS; chain copies: 2

The target of data set [1] is T1, GFP2 Left TAL-PBx (synthetic construct).
T1 chain: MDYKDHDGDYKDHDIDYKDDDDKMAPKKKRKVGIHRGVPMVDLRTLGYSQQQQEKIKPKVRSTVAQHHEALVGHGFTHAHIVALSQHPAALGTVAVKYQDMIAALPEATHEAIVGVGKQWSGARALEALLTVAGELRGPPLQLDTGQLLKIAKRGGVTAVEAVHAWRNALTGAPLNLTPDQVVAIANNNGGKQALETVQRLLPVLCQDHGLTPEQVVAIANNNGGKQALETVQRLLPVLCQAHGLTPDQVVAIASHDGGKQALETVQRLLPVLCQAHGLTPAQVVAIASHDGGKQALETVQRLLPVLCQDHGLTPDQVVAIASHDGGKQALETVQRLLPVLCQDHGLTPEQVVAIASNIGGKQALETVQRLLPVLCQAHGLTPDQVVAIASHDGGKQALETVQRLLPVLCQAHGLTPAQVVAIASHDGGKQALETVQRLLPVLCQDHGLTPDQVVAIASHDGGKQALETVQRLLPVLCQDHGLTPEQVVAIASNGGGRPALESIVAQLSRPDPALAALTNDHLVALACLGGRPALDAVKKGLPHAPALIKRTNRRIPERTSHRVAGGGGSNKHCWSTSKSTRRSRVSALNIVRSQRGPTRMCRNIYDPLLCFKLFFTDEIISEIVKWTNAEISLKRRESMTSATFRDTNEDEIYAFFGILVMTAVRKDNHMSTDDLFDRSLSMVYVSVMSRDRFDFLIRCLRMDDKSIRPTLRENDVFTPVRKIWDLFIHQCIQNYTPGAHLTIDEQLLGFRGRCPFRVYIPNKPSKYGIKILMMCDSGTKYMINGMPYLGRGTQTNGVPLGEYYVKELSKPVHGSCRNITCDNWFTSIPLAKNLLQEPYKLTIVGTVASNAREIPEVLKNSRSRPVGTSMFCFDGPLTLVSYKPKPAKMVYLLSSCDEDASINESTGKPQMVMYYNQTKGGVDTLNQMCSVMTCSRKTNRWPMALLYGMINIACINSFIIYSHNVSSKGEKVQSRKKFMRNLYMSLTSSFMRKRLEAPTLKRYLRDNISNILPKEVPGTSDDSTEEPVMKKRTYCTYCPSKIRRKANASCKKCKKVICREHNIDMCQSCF
The protocol: (§1) To determine if the optimal spacer length is consistent from one TAL-ssSPB to the next, similar reporters were constructed with TAL target sites for the GFP1 Left, GFP2 Right, GFP2 Left, and ZFM268 TAL-PBxs as described above. These constructs were tested using a narrower set of spacer lengths of 11 bp, 12 bp, 13 bp, 14 bp, 15 bp constructs for GFP1 Left (SEQ ID Nos. 345-349), GFP2 Left (SEQ ID Nos. 350-354), GFP2 Right (SEQ ID Nos. 355-359) and ZFM268 (SEQ ID NOs: 340-344).
(§2) Each reporter plasmid and the donor plasmid were cotransfected into HEK293T cells with the corresponding TAL-ssSPB expression plasmid. 120,000 HEK293T cells were plated in 24 well plates in 500 ul of DMEM medium supplemented with 10% FBS. The following day, a transfection mixture containing 50 ng of the TAL-ssSPB expression vector, 225 ng of the reporter plasmid, 225 ng of donor plasmid and 1 μl of JetPrime transfection reagent in a total volume of 50 μl of JetPrime buffer were assembled. The mixture was added to the HEK293T cells and the cells were incubated for four days at 37° C. at 5% CO2, splitting the cells 1:6 at day one. The percentage of on-target site-specific transposition positive cells for the various spacer length constructs were determined by FACS analysis and the results are shown in Table 18.

The target in data set [2] is T2, GFP1 Left TAL-PBx (synthetic construct).
T2 chain: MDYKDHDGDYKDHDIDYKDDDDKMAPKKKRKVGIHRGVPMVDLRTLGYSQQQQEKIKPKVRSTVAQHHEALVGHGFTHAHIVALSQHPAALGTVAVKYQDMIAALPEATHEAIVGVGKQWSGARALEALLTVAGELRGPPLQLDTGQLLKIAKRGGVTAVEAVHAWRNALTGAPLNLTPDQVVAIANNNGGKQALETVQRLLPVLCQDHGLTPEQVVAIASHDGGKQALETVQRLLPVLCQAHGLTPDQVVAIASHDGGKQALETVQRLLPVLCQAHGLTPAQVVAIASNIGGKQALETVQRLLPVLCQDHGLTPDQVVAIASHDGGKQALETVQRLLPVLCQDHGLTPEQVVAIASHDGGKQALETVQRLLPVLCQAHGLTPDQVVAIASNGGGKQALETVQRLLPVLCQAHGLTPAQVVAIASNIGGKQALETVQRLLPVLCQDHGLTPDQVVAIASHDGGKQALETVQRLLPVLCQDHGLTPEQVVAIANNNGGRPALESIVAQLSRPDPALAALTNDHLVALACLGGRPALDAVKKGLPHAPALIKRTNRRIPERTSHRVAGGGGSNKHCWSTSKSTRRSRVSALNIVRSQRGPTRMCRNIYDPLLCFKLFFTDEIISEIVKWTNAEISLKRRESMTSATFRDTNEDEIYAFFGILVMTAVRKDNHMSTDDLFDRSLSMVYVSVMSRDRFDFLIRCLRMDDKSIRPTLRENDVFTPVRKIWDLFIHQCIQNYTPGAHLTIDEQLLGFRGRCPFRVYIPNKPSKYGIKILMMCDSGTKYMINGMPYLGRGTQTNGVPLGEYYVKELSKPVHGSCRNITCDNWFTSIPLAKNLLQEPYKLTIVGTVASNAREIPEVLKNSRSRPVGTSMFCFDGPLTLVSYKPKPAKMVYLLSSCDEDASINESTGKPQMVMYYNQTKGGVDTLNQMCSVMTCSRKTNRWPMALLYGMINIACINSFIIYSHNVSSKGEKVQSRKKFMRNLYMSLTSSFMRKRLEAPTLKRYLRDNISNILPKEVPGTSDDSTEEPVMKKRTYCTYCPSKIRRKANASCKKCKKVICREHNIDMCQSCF
The protocol:
as §1, §2

Data set [3] deals with T3, GFP2 Right TAL-PBx (synthetic construct).
T3 chain: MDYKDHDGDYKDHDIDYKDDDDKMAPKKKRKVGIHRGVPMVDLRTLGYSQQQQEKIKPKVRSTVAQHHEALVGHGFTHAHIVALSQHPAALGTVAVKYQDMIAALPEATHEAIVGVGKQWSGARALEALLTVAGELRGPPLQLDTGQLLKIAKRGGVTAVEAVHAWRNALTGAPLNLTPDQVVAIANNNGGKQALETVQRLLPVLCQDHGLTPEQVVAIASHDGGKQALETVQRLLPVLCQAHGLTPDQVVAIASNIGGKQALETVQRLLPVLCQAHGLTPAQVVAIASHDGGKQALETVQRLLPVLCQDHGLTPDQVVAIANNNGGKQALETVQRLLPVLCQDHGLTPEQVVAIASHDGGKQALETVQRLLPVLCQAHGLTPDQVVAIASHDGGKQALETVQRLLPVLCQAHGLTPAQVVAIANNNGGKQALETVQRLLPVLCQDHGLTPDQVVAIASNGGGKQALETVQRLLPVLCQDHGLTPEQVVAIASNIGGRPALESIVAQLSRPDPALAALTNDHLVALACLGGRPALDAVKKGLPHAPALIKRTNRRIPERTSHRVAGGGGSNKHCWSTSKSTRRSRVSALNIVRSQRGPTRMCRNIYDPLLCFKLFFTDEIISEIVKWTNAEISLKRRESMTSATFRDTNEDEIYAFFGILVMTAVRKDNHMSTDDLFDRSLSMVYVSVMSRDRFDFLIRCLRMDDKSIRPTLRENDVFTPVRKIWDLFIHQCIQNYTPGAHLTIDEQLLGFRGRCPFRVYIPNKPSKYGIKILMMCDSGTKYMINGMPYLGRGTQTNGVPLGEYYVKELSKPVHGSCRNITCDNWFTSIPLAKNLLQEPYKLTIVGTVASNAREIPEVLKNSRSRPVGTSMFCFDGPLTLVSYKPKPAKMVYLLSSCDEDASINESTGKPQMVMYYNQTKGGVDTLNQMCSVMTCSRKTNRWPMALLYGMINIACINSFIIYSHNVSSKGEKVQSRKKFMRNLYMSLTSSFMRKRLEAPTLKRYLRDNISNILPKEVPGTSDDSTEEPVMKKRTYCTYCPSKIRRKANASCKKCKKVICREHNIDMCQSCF
The method, then: as §1, §2

The target of data set [4] is T4, ZFM268 TAL-PBx (synthetic construct).
T4 chain: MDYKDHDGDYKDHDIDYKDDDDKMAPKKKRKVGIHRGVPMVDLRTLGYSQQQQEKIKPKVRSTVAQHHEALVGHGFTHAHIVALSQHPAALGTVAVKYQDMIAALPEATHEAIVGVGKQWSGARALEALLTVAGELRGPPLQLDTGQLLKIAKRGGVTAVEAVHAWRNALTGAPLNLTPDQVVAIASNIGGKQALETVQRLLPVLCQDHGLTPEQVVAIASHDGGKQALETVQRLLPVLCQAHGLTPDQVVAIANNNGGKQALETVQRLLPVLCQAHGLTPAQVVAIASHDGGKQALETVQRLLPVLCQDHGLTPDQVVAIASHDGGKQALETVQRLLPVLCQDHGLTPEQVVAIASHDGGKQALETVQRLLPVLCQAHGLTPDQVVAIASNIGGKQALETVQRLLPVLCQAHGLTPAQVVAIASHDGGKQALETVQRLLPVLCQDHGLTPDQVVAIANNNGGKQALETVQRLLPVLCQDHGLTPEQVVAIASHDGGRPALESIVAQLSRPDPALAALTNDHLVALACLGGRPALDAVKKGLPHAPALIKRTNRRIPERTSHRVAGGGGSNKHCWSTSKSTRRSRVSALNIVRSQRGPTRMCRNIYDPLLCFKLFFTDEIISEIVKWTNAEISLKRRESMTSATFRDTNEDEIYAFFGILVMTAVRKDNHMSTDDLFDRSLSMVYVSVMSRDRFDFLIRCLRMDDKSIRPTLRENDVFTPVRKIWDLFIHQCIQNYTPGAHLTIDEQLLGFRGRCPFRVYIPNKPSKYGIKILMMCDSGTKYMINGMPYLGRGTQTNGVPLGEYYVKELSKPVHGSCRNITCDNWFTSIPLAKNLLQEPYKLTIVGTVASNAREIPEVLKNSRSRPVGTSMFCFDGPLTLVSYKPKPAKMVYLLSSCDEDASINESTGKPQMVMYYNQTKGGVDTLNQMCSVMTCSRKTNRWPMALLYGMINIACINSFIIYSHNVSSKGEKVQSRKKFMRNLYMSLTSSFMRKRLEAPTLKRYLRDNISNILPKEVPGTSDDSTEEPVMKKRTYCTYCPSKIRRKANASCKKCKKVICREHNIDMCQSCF
The protocol:
as §1, §2

B1: GFP2L 12 bp spacer (dsDNA)
DNA 1: TGGCCCACCCTGCAATCTCCGGCTTAACTACTGACTGAAAGGGTGGGCCA
DNA 2: TGGCCCACCCTTTCAGTCAGTAGTTAAGCCGGAGATTGCAGGGTGGGCCA
In the case of B1, the activity in data set [1] was 22.4 % GFP+.

B2: GFP2L 13 bp spacer (dsDNA)
DNA 1: TGGCCCACCCTGCAATCTCACGGCTTAACTACTGACCTGAAAGGGTGGGCCA
DNA 2: TGGCCCACCCTTTCAGGTCAGTAGTTAAGCCGTGAGATTGCAGGGTGGGCCA
Consider B2, for which the activity in data set [1] was found to be 23.5 % GFP+.

B3: GFP1L 12 bp spacer (dsDNA)
DNA 1: TGCCACCTACGGCAATCTCCGGCTTAACTACTGACTGAACGTAGGTGGCA
DNA 2: TGCCACCTACGTTCAGTCAGTAGTTAAGCCGGAGATTGCCGTAGGTGGCA
B3 had an activity in data set [2] of 13.7 % GFP+.

B4: GFP2R 13 bp spacer (dsDNA)
DNA 1: TGCACGCCGTAGCAATCTCACGGCTTAACTACTGACCTGAATACGGCGTGCA
DNA 2: TGCACGCCGTATTCAGGTCAGTAGTTAAGCCGTGAGATTGCTACGGCGTGCA
B4: the activity in data set [3] stood at 15.8 % GFP+.

B5: GFP2R 12 bp spacer (dsDNA)
DNA 1: TGCACGCCGTAGCAATCTCCGGCTTAACTACTGACTGAATACGGCGTGCA
DNA 2: TGCACGCCGTATTCAGTCAGTAGTTAAGCCGGAGATTGCTACGGCGTGCA
For the molecule B5, in data set [3], the activity was determined as 16.9 % GFP+.

B6: ZFM268 TAL 12 bp spacer (dsDNA)
DNA 1: TACGCCCACGCGCAATCTCCGGCTTAACTACTGACTGAAGCGTGGGCGTA
DNA 2: TACGCCCACGCTTCAGTCAGTAGTTAAGCCGGAGATTGCGCGTGGGCGTA
As to B6, in data set [4], the activity is 21.8 % GFP+.

B7: ZFM268 TAL 13 bp spacer (dsDNA)
DNA 1: TACGCCCACGCGCAATCTCACGGCTTAACTACTGACCTGAAGCGTGGGCGTA
DNA 2: TACGCCCACGCTTCAGGTCAGTAGTTAAGCCGTGAGATTGCGCGTGGGCGTA
B7 showed an activity in data set [4] of 21.2 % GFP+.

B8: GFP1L 13 bp spacer (dsDNA)
DNA 1: TGCCACCTACGGCAATCTCACGGCTTAACTACTGACCTGAACGTAGGTGGCA
DNA 2: TGCCACCTACGTTCAGGTCAGTAGTTAAGCCGTGAGATTGCCGTAGGTGGCA
For the molecule B8, the activity in data set [2] worked out at 17 % GFP+.

The record behind these values is patent US20240392262A1, “TRANSPOSASE AND USES THEREOF” (Poseida Therapeutics, Inc., published 2024).
